From patent CN115010810A (NANJING SANHOME PHARMACEUTICAL CO LTD, dated 2022)
One block for each binder: values may come before it.

Legend:
[1] = target: T1, 人CTLA-4-His蛋白 (human CTLA-4 extracellular domain fused to His tag) (human, UniProt P16410 36-161); assay: ELISA, human CTLA-4-His coated
T1 construct: also called hCTLA-4-His
T1 sequence: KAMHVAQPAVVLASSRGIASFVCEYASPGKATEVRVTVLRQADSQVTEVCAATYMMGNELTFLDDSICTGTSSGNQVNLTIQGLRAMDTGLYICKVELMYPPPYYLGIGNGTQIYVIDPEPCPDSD

[2] = target: T2, PD-1 on the surface of hPD-1-CHO-K1 cells (human, UniProt Q15116 25-288); assay: FACS on hPD-1-CHO-K1 cells
T2 construct: also called 细胞表面PD-1; CHO-K1-PD-1

[3] = target: 人PD-1-His蛋白 (自产; human PD-1 extracellular domain with His tag) (human, UniProt Q15116 25-170); assay: ELISA, human PD-1-His coated
[4] = target: T3, 食蟹猴PD-1-His (SB, Cat.No.90311-C08H) (cynomolgus monkey); assay: ELISA, cynomolgus PD-1-His coated
T3 construct: Purchased protein; also called cynomolgus PD-1-His

Sequence of 人PD-1-His蛋白 (自产; human PD-1 extracellular domain with His tag) (Q15116 25-170 limits assumed): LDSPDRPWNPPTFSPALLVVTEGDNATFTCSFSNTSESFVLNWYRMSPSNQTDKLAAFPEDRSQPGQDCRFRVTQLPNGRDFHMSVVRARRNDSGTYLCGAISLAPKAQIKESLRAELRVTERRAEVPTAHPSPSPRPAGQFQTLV
T2 sequence (Q15116 25-288 limits assumed): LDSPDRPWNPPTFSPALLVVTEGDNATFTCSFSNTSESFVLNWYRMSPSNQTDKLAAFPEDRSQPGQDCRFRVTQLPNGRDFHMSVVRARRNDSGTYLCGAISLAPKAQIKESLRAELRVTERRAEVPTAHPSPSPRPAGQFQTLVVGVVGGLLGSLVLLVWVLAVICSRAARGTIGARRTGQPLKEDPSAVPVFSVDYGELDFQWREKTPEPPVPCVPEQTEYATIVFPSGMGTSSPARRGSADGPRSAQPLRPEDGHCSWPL

EC50 [1]: 0.01 nM
B1: HuC92-11 (antibody, V domains shown)
VH: QVQLVESGGGVVQPGRSLRLSCAASGFTFSNYAMSWVRQAPGKGLEWVAEISYSGTYSYHSDTVTGRFTISRDNSKNTLYLQMSSLRAEDTAVYYCTRRDYDNEMDYWGQGTLVTVSS
VL: DIQMTQSPSSLSASVGDRVTITCRTSQVITNYLNWYQQKPGKAPKLLIYYTSRLHSGVPSRFSGSGSGTDYTLTISSLQPEDFATYYCQQFGKRPPTFGGGTKVEIK
notes: also called SHS010-HuC92-11; 人源化抗CTLA-4抗体HuC92-11

EC50 [2]: 0.11 nM | EC50 [3]: 0.18 nM | EC50 [4]: 0.088 nM
B2: SHS006-HuP01-22 (antibody, V domains shown)
VH: QVQLVQSGAEVKKPGASVKVSCKASGYTFTWYHMSWVRQAPGQGLEYMGYINTRSGDTYYNEKFKGRVTMTTDTSTSTAYMELRSLRSDDTAVYYCARSGYGGSDYWGQGTLVTVSS
VL: DIVMTQSPDSLAVSLGERATINCKSSQNLLYSENKKNSLAWYQQKPGQPPKLLISWASTREFGVPDRFSGSGSGTDFTLTISSLQAEDVAVYYCEQYYDILPTFGGGTKVEIK
notes: also called SHS006-P01-22; 人源化抗PD-1抗体SHS006-HuP01-22
